Values quoted from earlier work, collected in publication PMC10426772.
One block for each substance: values may come before it.

Key:
[1] = target: insulin receptor (HIR, brain capillary) (Homo sapiens) (UniProt P06213); experiment: radio-receptor assay with [125I]-insulin
[2] = target: leptin receptor (Homo sapiens) (UniProt P48357); experiment: radio-receptor assay
[3] = target: IGF receptor (human BBB) (Homo sapiens) (UniProt P08069); experiment: radio-receptor assay
[4] = target: IGF receptor (IGF1R, brain capillary) (Homo sapiens) (UniProt P08069); experiment: radio-receptor assay with [125I]-IGF2

Chain of insulin (P01308 90-110): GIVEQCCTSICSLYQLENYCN
Chain of leptin (P41159 22-167): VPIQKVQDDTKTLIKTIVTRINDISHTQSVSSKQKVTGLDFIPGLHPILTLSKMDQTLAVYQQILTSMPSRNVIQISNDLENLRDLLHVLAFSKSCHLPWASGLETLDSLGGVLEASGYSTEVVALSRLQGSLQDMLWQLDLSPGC
Chain of leptin receptor (Homo sapiens) (P48357 22-839): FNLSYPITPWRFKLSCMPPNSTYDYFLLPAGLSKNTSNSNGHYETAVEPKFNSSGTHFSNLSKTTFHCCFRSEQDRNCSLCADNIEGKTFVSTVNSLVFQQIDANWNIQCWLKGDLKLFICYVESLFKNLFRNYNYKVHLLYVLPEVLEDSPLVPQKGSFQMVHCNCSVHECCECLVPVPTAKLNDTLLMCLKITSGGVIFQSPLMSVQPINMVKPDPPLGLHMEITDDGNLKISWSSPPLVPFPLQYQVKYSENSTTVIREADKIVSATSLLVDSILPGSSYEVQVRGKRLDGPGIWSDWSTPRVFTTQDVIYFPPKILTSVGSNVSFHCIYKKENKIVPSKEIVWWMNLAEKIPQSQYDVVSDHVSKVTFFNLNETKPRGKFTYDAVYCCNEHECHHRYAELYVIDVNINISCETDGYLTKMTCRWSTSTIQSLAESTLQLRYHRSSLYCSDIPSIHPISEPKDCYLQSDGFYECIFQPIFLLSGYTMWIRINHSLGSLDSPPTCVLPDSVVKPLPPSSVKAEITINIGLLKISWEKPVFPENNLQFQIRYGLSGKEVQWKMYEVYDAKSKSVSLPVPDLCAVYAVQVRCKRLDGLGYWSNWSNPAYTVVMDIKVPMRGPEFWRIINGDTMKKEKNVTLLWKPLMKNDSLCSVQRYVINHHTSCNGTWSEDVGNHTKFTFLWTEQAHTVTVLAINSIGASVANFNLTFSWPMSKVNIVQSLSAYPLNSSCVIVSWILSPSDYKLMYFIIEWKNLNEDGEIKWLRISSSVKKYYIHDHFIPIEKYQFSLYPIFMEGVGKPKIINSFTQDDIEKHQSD

Kd [1]: 1.2 nM
Substance: insulin (from UniProt P01308)

Kd [2]: 5.1 nM
Substance: leptin (from UniProt P41159)

Kd [3]: 1.1 nM
Kd [4]: 1.1 nM
Substance: IGF2 (from UniProt P01344)
